Test results published in publication PMC6970277.

Test system: DosR (His6-DosR, pre-phosphorylated with acetyl phosphate) (Mycobacterium tuberculosis)
Assay: EMSA

## hspX promoter probe
  binding signal (fold inhibition of binding vs DMSO): 22
